These results are taken from US20090062180A1 (TEL AVIV UNIVERSITY FUTURE TECHNOLOGY DEVELOPMENT L P, published 2009).

Square brackets hold non-standard residues; d marks the D form. Ends that are not written are not given here. * marks the point of attachment. Myristoyl = CCCCCCCCCCCCCC(=O)*; pS = N[C@@H](COP(=O)(O)O)C(=O)O

The target of experiment [1] is T1, Purified recombinant rabbit GSK-3β (glycogen synthase kinase-3β) (rabbit, UniProt A0A5F9DUX8 1-420). As to the kind of experiment: cell-based or functional assay.
Experiment [2] has as its target endogenous GSK-3 (in HEK 293 cells). As to the kind of experiment: cell-based or functional assay.
The target in experiment [3] is T1, Purified recombinant rabbit GSK-3β …. Nature of the experiment: cell-based or functional assay. This is another data set of the same source.
Experiment [4] has as its target casein kinase-2 (CK-2). As to the kind of experiment: cell-based or functional assay.
Experiment [5] concerns the target Protein kinase B (PKB). As to the kind of experiment: cell-based or functional assay.
Experiment [6] concerns the target catalytic subunit of cAMP dependent protein kinase (PKA). As to the kind of experiment: cell-based or functional assay.
In experiment [7] the target is mitogen activated protein kinase (MAPK). Nature of the experiment: cell-based or functional assay.
The target of experiment [8] is Protein kinase C-δ. Nature of the experiment: cell-based or functional assay.
Experiment [9] concerns the target Cyclic dependent protein kinase, cdc2. Nature of the experiment: cell-based or functional assay.
The target in experiment [10] is T1, Purified recombinant rabbit GSK-3β …. Nature of the experiment: Lineweaver-Burk analysis of the in vitro GSK-3 kinase assay; competitive against PGS-1 peptide substrate. How it is done: The results represent phosphate incorporation into PGS-1 peptide substrate (CPM). […] Each point is a mean of duplicate samples.
In vitro inhibition assays: Purified recombinant rabbit GSK-30 (Eldar-Finkelman et al., 1996) was incubated with peptide substrate PGS-1 ([…](p)EDEEE) (SEQ ID NO:15) and with a peptide inhibitor at indicated concentrations. The reaction mixture included Tris 50 mM (pH=7.3), 10 mM MgAc, ³²P[γ-ATP] (100 μM), 0.01% β-mercaptoethanol, and was incubated for 10 minutes at 30° C. Reactions were spotted on phosphocellulose paper (p81), washed with 100 mM phosphoric acid, and counted for radioactivity (as described in Eldar-Finkelman et al., 1996).

B1: Peptide No. 12 PAPPQS(p)P (peptide)
peptide: PAPPQ[pS]P
For B1, the “Inhibitor functionality (IC50)” value in experiment [1] is over 800 µM.

B2: L803-mts (N-Myristol-GKEAPPAPPQS(p)P) (peptide)
peptide: Myristoyl-GKEAPPAPPQ[pS]P
For the molecule B2, the “glycogen synthase activity in HEK 293 cells” value in experiment [2] amounted to 2.5 fold. Further, in experiment [3], the “IC50 (comparative GSK-3β inhibition assay, PGS-1 substrate; FIG. 4)” value was 40 µM and the “IC50 (in vitro GSK-3 kinase inhibition, PGS-1 substrate; FIGS. 3a-b)” value was found to be 40 µM.

B3: Peptide No. 9 KEAPPAPPQS(p)P (L803) (peptide)
peptide: KEAPPAPPQ[pS]P
notes: also called peptide 9
Take B3: the “% Maximal activity (kinase activity with 200 µM L803)” value is 117% in experiment [4]; 91% in experiment [5]; 86% in experiment [6]; 106% in experiment [7]; 111% in [8]; 90% in experiment [9]. Further, the “IC50 (in vitro GSK-3 kinase inhibition, PGS-1 substrate)” value in experiment [3] is 150 µM. For the same molecule, the inhibitory constant (Ki) (commonly a dissociation constant, usually derived from enzyme kinetics or from competition with a known ligand) in [10] came to 70 µM.
